{"source": "paper PMC12431651", "about": "(2025)", "binders": {"B1": {"name": "NS1 (protein)", "chain": "MGSNSLSMIKVRLQNLFDNDEVALLKITCYTDKLIHLTNALAKAVIHTIKLNGIVFVHVITSSDICPNNNIVVKSNFTTMPVLQNGGYIWEMMELTHCSQPNGLLDDNCEIKFSKKLSDSTMTNYMNQLSELLGFDLNP"}}, "target": "T1, MED25 ACID (Homo sapiens, UniProt Q71SY5)", "T1 chain": "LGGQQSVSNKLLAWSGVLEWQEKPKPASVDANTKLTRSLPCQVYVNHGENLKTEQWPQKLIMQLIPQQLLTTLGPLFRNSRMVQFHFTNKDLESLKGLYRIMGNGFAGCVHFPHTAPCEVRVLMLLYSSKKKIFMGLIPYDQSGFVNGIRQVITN", "experiment": "BLI", "data": [{"binder": "B1", "values": [{"measurement": "Kd", "value": 16, "unit": "nM"}]}]}
